This note sets out measurements from patent publication US20260242478A1 (published 2026).

The target of experiment [1] is T1, PSMA Fab (006 PSMA Fab) (biotinylated (site not stated)).
T1 construct: also called Anti-PSMA Fab
Kind of experiment: clonal phage ELISA on captured PSMA Fab, wells pre-incubated with PSMA antigen as competitor. In general terms: In an ELISA, binding on a coated surface is turned into a signal by an enzyme label.

In experiment [2] the target is T1, PSMA Fab (006 PSMA Fab). The experiment is described as follows: clonal phage ELISA on biotinylated PSMA Fab captured on neutravidin plates, anti-M13 HRP detection.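 Also: crude clonal phage supernatants tested, before phage were added, wells were pretreated with PSMA antigen in blocking buffer or with blocking buffer only.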
Experimental: (§1) Clonal phage were harvested as crude supernatants and screened via standard ELISAs. […] Prior to the addition of clonal phage. wells were incubated with blocking buffer and PSMA antigen or blocking buffer alone. Without washing or aspirating, clonal phage supernatants were then added to the wells and incubated for a short time. Wells were then washed followed by detection of bound phage using a horse radish conjugated anti-M13 antibody.
Experiment [3] deals with T2, PSMA Fab (006 PSMA Fab).
T2 construct: also called Anti-PSMA Fab; anti-PSMA Fab
Kind of experiment: clonal phage ELISA on captured PSMA Fab, wells pre-incubated with PSMA antigen as competitor.
Experimental: as §1

Experiment [4] deals with T2, PSMA Fab (006 PSMA Fab). The experiment is described as follows: clonal phage ELISA on biotinylated PSMA Fab captured on neutravidin, blocking buffer alone, anti-M13 HRP detection.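 Also: clonal phage were tested as crude supernatants, and the signal reflects phage still bound to the wells after washing.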
Experimental: as §1
The target in experiment [5] is T3, PSMA Fab (006 PSMA Fab).
T3 construct: also called Anti-PSMA Fab
The experiment is described as follows: clonal phage ELISA on captured PSMA Fab pre-incubated with PSMA antigen as competitor.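 Also: crude clonal phage supernatants added to wells without washing away the PSMA competitor, bound phage detected by HRP-conjugated anti-M13 antibody, reference wells received blocking buffer only.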
Experimental: as §1

The target of experiment [6] is T3, PSMA Fab (006 PSMA Fab). The experiment is described as follows: clonal phage ELISA on biotinylated PSMA Fab captured on neutravidin plates, anti-M13 HRP detection.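 Also: crude clonal phage supernatants tested, before phage were added, wells were pretreated with PSMA antigen in blocking buffer or with blocking buffer only.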
Experimental: as §1
Experiment [7] addresses T4, Anti-PSMA Fab.
T4 construct: also called 006 PSMA Fab
The experiment is described as follows: clonal phage ELISA; biotinylated PSMA Fab on neutravidin plate, blocking buffer alone; anti-M13 HRP detection.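 Also: crude clonal phage supernatants added without washing to wells pretreated with blocking buffer with or without PSMA antigen, short incubation, then washed before detecting bound phage.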
Experimental: as §1

The target in experiment [8] is T4, Anti-PSMA Fab. The experiment is described as follows: clonal phage ELISA; biotinylated PSMA Fab on neutravidin plate, wells pre-incubated with PSMA antigen as competitor; anti-M13 HRP detection.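 Also: crude clonal phage supernatants added to antigen-treated wells without a wash, incubated briefly, then bound phage read out via horse radish–conjugated anti-M13 antibody.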
Experimental: as §1

As for EGPLCKPAWMCRGF [Phage-3663 (peptide-180 library clone)], in experiment [1], the “Phage binding ELISA signal, Anti-PSMA Fab in presence of PSMA” value is 0.0963. The “Phage binding ELISA signal, Anti-PSMA Fab” value in experiment [2] stood at 1.49.
Take PVPYCRPIWMCQGL [Phage-3664 (peptide-180 library clone)]: the “Phage binding ELISA signal, Anti-PSMA Fab in presence of PSMA” value in experiment [1] turned out to be 0.0736. For the same molecule, the “Phage binding ELISA signal, Anti-PSMA Fab” value in experiment [2] was found to be 1.49.
In the case of SMIYCIPSWMCEGM [Phage-3657 (Peptide-180 library clone)], the “phage binding ELISA signal on anti-PSMA Fab in presence of PSMA” value in experiment [3] was 0.0844. For the same molecule, in experiment [4], the “phage binding ELISA signal on anti-PSMA Fab” value is 1.5.
Consider LVKHCVPDWMCSGF [Phage-3677], for which the “Phage binding ELISA signal, Anti-PSMA Fab with PSMA antigen” value in experiment [5] came to 0.101. Moreover, the “Phage binding ELISA signal, Anti-PSMA Fab” value in experiment [6] came to 1.48.
In the case of VVVQCVPKWMCYGF [Phage-3688], the “Phage binding ELISA signal, Anti-PSMA Fab” value in experiment [7] worked out at 1.47. In addition, the “Phage binding ELISA signal, Anti-PSMA Fab in presence of PSMA” value in experiment [8] amounted to 0.0764.
Regarding LQTLCIPPWMCMGF [Phage-3649 (Peptide-180 library clone)], in experiment [3], the “phage binding ELISA signal on anti-PSMA Fab in presence of PSMA” value stood at 0.0685. In addition, the “phage binding ELISA signal on anti-PSMA Fab” value in experiment [4] is 1.5.
As for LQVLCVPDWMCAGF [Phage-3668 (peptide-180 library clone)], the “Phage binding ELISA signal, Anti-PSMA Fab in presence of PSMA” value in experiment [1] is 0.091. In experiment [2], the “Phage binding ELISA signal, Anti-PSMA Fab” value worked out at 1.49.
Regarding EQVLCRPAWMCLGF [Phage-3650 (Peptide-180 library clone)], the “phage binding ELISA signal on anti-PSMA Fab in presence of PSMA” value in experiment [3] was found to be 0.0974. Further, the “phage binding ELISA signal on anti-PSMA Fab” value in experiment [4] turned out to be 1.5.
For the molecule HVAACVPSWMCTGF [Phage-3662 (peptide-180 library clone)], in experiment [1], the “Phage binding ELISA signal, Anti-PSMA Fab in presence of PSMA” value came to 0.0842. In addition, the “Phage binding ELISA signal, Anti-PSMA Fab” value in experiment [2] worked out at 1.49.
For AAKYCEPSWMCYGF [Phage-3672 (peptide-180 library clone)], the “Phage binding ELISA signal, Anti-PSMA Fab in presence of PSMA” value in experiment [1] stood at 0.105. For the same molecule, the “Phage binding ELISA signal, Anti-PSMA Fab” value in experiment [2] was 1.48.
PSAVCVPTWMCSGF [Phage-3652 (Peptide-180 library clone)]: in experiment [3], the “phage binding ELISA signal on anti-PSMA Fab in presence of PSMA” value came out at 0.0815. The “phage binding ELISA signal on anti-PSMA Fab” value in experiment [4] stood at 1.5.
Take DAMMCKPTWMCDGF [Phage-3675]: the “Phage binding ELISA signal, Anti-PSMA Fab with PSMA antigen” value in experiment [5] is 0.0662. The “Phage binding ELISA signal, Anti-PSMA Fab” value in experiment [6] is 1.48.
As for STSWCSPPWMCEGF [Phage-3683], in experiment [5], the “Phage binding ELISA signal, Anti-PSMA Fab with PSMA antigen” value was 0.0631. Moreover, the “Phage binding ELISA signal, Anti-PSMA Fab” value in experiment [6] is 1.47.
As to PELRCHPPWMCTGF [Phage-3670 (peptide-180 library clone)], in experiment [1], the “Phage binding ELISA signal, Anti-PSMA Fab in presence of PSMA” value came out at 0.0997. In addition, in experiment [2], the “Phage binding ELISA signal, Anti-PSMA Fab” value was found to be 1.49.
On to ADMRCVPDWMCHGF [Phage-3686], for which the “Phage binding ELISA signal, Anti-PSMA Fab with PSMA antigen” value in experiment [5] amounted to 0.0874. Also, in experiment [6], the “Phage binding ELISA signal, Anti-PSMA Fab” value turned out to be 1.47.
For the molecule ETSWCTPSWMCTGF [Phage-3656 (Peptide-180 library clone)], in experiment [3], the “phage binding ELISA signal on anti-PSMA Fab in presence of PSMA” value came to 0.0752. In experiment [4], the “phage binding ELISA signal on anti-PSMA Fab” value stood at 1.5.
With ESRFCVPAWMCAAV [Phage-3665 (peptide-180 library clone)], in experiment [1], the “Phage binding ELISA signal, Anti-PSMA Fab in presence of PSMA” value is 0.089. Further, in experiment [2], the “Phage binding ELISA signal, Anti-PSMA Fab” value came out at 1.49.
With PEARCIPMWMCERL [Phage-3676], the “Phage binding ELISA signal, Anti-PSMA Fab with PSMA antigen” value in experiment [5] stood at 0.0885. The “Phage binding ELISA signal, Anti-PSMA Fab” value in experiment [6] was found to be 1.48.
Take MIAMCKPPWMCIGL [Phage-3687]: the “Phage binding ELISA signal, Anti-PSMA Fab” value in experiment [7] is 1.47. Also, in experiment [8], the “Phage binding ELISA signal, Anti-PSMA Fab in presence of PSMA” value turned out to be 0.0954.
PHVVCIPEWMCAGF [Phage-3681]: the “Phage binding ELISA signal, Anti-PSMA Fab with PSMA antigen” value in experiment [5] was determined as 0.068. The “Phage binding ELISA signal, Anti-PSMA Fab” value in experiment [6] was 1.47.
Regarding DERMCRPAWMCEGL [Phage-3682], the “Phage binding ELISA signal, Anti-PSMA Fab with PSMA antigen” value in experiment [5] stood at 0.102. Further, in experiment [6], the “Phage binding ELISA signal, Anti-PSMA Fab” value came out at 1.47.
Turning to LGKICSPAWMCSGF [Phage-3673], in experiment [5], the “Phage binding ELISA signal, Anti-PSMA Fab with PSMA antigen” value stood at 0.0608. Besides, the “Phage binding ELISA signal, Anti-PSMA Fab” value in experiment [6] amounted to 1.48.
For the molecule IDRHCTPSWMCYGF [Phage-3658 (Peptide-180 library clone)], the “phage binding ELISA signal on anti-PSMA Fab in presence of PSMA” value in experiment [3] was 0.0562. Moreover, the “phage binding ELISA signal on anti-PSMA Fab” value in experiment [4] worked out at 1.5.
In the case of ERPACVPMWMCTGL [Phage-3684], the “Phage binding ELISA signal, Anti-PSMA Fab with PSMA antigen” value in experiment [5] was determined as 0.0929. In experiment [6], the “Phage binding ELISA signal, Anti-PSMA Fab” value amounted to 1.47.
Turning to YIQACKPRWMCNGF [Phage-3667 (peptide-180 library clone)], the “Phage binding ELISA signal, Anti-PSMA Fab in presence of PSMA” value in experiment [1] came to 0.0874. In experiment [2], the “Phage binding ELISA signal, Anti-PSMA Fab” value was found to be 1.49.
Turning to SVVMCVPEWMCQGF [Phage-3651 (Peptide-180 library clone)], the “phage binding ELISA signal on anti-PSMA Fab in presence of PSMA” value in experiment [3] was 0.0734. Also, the “phage binding ELISA signal on anti-PSMA Fab” value in experiment [4] was determined as 1.5.
Take EMSLCIPAWMCSVF [Phage-3685]: the “Phage binding ELISA signal, Anti-PSMA Fab with PSMA antigen” value in experiment [5] worked out at 0.0677. Besides, the “Phage binding ELISA signal, Anti-PSMA Fab” value in experiment [6] is 1.47.
VERMCEPLWMCAGL [Phage-3655 (Peptide-180 library clone)]: in experiment [3], the “phage binding ELISA signal on anti-PSMA Fab in presence of PSMA” value is 0.0832. Further, the “phage binding ELISA signal on anti-PSMA Fab” value in experiment [4] is 1.5.
Turning to VAIACTPMWMCTGF [Phage-3661 (peptide-180 library clone)], in experiment [1], the “Phage binding ELISA signal, Anti-PSMA Fab in presence of PSMA” value amounted to 0.113. Further, the “Phage binding ELISA signal, Anti-PSMA Fab” value in experiment [2] was 1.49.
On the same counts, the results for DHKLCKPEWMCAGL [Phage-3659 (peptide-180 library clone)] are 0.0672 and 1.5.
For GTMKCEPAWMCEGF [Phage-3674], the “Phage binding ELISA signal, Anti-PSMA Fab with PSMA antigen” value in experiment [5] was 0.106. Further, in experiment [6], the “Phage binding ELISA signal, Anti-PSMA Fab” value amounted to 1.48.
Take EVRRCEPSWMCSVV [Phage-3666 (peptide-180 library clone)]: the “Phage binding ELISA signal, Anti-PSMA Fab in presence of PSMA” value in experiment [1] is 0.0749. Moreover, the “Phage binding ELISA signal, Anti-PSMA Fab” value in experiment [2] amounted to 1.49.
For the molecule YTVQCVPTWMCAGL [Phage-3680], the “Phage binding ELISA signal, Anti-PSMA Fab with PSMA antigen” value in experiment [5] was 0.0609. In experiment [6], the “Phage binding ELISA signal, Anti-PSMA Fab” value came out at 1.47.
On to MIKMCKPYWMCEAM [Phage-3679], for which the “Phage binding ELISA signal, Anti-PSMA Fab with PSMA antigen” value in experiment [5] was 0.0794. In addition, the “Phage binding ELISA signal, Anti-PSMA Fab” value in experiment [6] is 1.48.
In the case of VQILCRPQWMCEGL [Phage-3653 (Peptide-180 library clone)], in experiment [3], the “phage binding ELISA signal on anti-PSMA Fab in presence of PSMA” value came to 0.0669. Moreover, the “phage binding ELISA signal on anti-PSMA Fab” value in experiment [4] came to 1.5.
In the case of ISIKCEPQWMCDGL [Phage-3671 (peptide-180 library clone)], the “Phage binding ELISA signal, Anti-PSMA Fab in presence of PSMA” value in experiment [1] stood at 0.307. The “Phage binding ELISA signal, Anti-PSMA Fab” value in experiment [2] came out at 1.48.
As to VIPKCEPKWMCHSL [Phage-3678], in experiment [5], the “Phage binding ELISA signal, Anti-PSMA Fab with PSMA antigen” value amounted to 0.0649. In experiment [6], the “Phage binding ELISA signal, Anti-PSMA Fab” value worked out at 1.48.
For MVSHCVPLWMCAGF [Phage-3660 (peptide-180 library clone)], in experiment [1], the “Phage binding ELISA signal, Anti-PSMA Fab in presence of PSMA” value is 0.0616. The “Phage binding ELISA signal, Anti-PSMA Fab” value in experiment [2] was 1.49.
LALACVPPWMCQGL [Phage-3654 (Peptide-180 library clone)]: the “phage binding ELISA signal on anti-PSMA Fab in presence of PSMA” value in experiment [3] is 0.0897. The “phage binding ELISA signal on anti-PSMA Fab” value in experiment [4] was 1.5.
For the molecule GHVYCEPQWMCYGF [Phage-3669 (peptide-180 library clone)], in experiment [1], the “Phage binding ELISA signal, Anti-PSMA Fab in presence of PSMA” value was 0.0791. For the same molecule, the “Phage binding ELISA signal, Anti-PSMA Fab” value in experiment [2] is 1.49.
